Publication PMC12411348 (2025)

Target: recombinant human pVHL (CUSABIO) (human, UniProt P40337-1 1-213)
Experiment: SPR

Chain of recombinant human pVHL (CUSABIO) (P40337 whole entry): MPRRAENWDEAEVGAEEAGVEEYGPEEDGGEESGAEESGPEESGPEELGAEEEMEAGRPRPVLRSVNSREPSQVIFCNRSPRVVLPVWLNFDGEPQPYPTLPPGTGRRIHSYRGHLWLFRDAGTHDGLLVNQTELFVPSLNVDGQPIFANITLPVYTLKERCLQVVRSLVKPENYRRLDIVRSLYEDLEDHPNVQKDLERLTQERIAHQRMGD

- Kd: 806 nM
B1: recombinant TCF7L2(1–456) (domain or fragment)
chain: MPQLNGGGGDDLGANDELISFKDEGEQEEKSSENSSAERDLADVKSSLVNESETNQNSSSDSEAERRPPPRSESFRDKSRESLEEAAKRQDGGLFKGPPYPGYPFIMIPDLTSPYLPNGSLSPTARTLHFQSGSTHYSAYKTIEHQIAVQYLQMKWPLLDVQAGSLQSRQALKDARSPSPAHIVSNKVPVVQHPHHVHPLTPLITYSNEHFTPGNPPPHLPADVDPKTGIPRPPHPPDISPYYPLSPGTVGQIPHPLGWLVPQQGQPVYPITTGGFRHPYPTALTVNASMSRFPPHMVPPHHTLHTTGIPHPAIVTPTVKQESSQSDVGSLHSSKHQDSKKEEEKKKPHIKKPLNAFMLYMKEMRAKVVAECTLKESAAINQILGRRWHALSREEQAKYYELARKERQLHMQLYPGWSARDNYGKKKKRKRDKQPGETNEHSECFLNPCLSLPPIT
